Residue numbers refer to the chain shown, from its start.
T1: pN-TALER IV-1-EE2 (GinL7C7-EE2-TALE13) (synthetic)
T1 chain: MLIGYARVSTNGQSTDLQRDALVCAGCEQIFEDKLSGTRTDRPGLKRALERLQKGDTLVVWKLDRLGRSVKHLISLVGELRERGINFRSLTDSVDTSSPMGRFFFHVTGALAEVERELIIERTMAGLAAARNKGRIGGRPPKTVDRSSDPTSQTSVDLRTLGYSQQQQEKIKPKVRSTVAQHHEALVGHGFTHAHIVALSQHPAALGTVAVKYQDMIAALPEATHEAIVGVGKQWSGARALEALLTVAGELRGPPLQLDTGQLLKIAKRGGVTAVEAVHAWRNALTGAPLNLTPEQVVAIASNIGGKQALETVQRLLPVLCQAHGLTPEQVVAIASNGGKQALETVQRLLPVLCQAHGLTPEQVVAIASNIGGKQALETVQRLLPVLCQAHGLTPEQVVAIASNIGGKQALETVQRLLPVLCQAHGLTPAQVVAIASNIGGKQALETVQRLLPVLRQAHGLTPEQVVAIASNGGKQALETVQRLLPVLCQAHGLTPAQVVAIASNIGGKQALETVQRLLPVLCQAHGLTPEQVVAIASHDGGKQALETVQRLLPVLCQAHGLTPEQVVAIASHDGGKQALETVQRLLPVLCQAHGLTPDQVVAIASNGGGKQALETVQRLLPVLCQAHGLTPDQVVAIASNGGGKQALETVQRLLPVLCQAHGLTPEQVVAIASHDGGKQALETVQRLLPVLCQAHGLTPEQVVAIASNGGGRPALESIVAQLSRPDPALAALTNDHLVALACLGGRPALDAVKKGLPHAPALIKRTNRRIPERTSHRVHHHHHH

T2: sN-TALER IV-1 (GinH106Y-TALE13) (synthetic)
T2 chain: T1 chain with A6V, G12D, S14N, D20N, E50K, V70M, V94I, H106Y, T108M, V114M

T3: sN-TALER IV-2 (GinH106Y-TALE13) (synthetic)
T3 chain: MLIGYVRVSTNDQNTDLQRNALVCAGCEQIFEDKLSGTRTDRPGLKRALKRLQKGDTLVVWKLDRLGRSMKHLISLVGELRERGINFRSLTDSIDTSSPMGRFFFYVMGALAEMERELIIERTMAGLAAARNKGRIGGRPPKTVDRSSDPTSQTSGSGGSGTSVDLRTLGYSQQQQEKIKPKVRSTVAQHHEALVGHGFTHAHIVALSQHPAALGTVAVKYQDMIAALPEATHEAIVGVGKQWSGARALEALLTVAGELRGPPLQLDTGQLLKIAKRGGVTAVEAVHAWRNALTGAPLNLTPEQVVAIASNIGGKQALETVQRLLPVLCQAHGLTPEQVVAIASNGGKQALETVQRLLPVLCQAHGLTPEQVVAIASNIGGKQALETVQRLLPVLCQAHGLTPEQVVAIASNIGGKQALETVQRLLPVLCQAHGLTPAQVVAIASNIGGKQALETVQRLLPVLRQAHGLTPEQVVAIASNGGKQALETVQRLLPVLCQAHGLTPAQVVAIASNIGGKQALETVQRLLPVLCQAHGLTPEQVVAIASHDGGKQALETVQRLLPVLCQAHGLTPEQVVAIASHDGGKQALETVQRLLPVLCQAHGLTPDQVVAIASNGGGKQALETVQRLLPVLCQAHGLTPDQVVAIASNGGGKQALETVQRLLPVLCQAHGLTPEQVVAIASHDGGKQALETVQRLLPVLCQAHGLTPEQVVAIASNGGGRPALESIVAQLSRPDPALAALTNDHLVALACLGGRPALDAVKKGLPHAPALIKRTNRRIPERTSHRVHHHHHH

T4: sN-TALER IV-3 (synthetic)
T4 chain: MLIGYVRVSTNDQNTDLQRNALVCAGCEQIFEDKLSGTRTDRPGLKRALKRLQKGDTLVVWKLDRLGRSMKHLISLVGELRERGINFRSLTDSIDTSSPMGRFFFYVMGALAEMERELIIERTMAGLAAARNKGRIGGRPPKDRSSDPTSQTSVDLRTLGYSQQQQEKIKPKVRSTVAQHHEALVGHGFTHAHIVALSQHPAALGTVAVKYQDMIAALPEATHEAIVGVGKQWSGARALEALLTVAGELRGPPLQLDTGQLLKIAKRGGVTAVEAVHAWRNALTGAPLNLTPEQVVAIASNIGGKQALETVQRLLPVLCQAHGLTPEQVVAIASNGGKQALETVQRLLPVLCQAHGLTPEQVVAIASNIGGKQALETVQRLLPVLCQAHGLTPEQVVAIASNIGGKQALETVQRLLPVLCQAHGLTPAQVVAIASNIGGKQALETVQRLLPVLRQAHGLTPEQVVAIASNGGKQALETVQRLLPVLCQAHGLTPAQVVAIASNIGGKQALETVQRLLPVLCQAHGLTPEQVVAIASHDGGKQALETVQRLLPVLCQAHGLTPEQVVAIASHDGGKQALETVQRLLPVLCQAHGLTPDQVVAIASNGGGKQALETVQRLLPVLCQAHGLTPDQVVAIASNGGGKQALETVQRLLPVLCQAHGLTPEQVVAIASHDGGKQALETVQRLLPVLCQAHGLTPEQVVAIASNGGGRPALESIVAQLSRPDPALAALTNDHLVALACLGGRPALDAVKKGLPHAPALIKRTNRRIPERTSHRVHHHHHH

B1: R48 (dsDNA)
DNA 1: AGAAGGTATTTATATCCAAAACTATAGTTTACAGTATAAATACCTTCT
DNA 2: AGAAGGTATTTATACTGTAAACTATAGTTTTGGATATAAATACCTTCT
B2: Gin20TALE+12 (dsDNA)
DNA 1: AGAAGGTATTTATATAGGCACACTTATCCAAAACCATGGTTTACAGGACCACACGGTATATAAATACCTTCT
DNA 2: AGAAGGTATTTATATACCGTGTGGTCCTGTAAACCATGGTTTTGGATAAGTGTGCCTATATAAATACCTTCT
B3: R45 (12bp) (dsDNA)
DNA 1: AGAAGGTATTTATATCTCAAACCATGGTTTCACTTATAAATACCTTCT
DNA 2: B3 DNA 1 with T15A, C16G, C18G, C31G, C33G, T34A
B4: R46 (10bp) (dsDNA)
DNA 1: B3 DNA 1 with A19T, T30A
DNA 2: AGAAGGTATTTATAAGTGTAACCATGGTTAGAGATATAAATACCTTCT

How the values were obtained:
Experiment in all cases: cell_activity; E. coli
[1] = biological target: T1, pN-TALER IV-1-EE2 (GinL7C7-EE2-TALE13); details: tags: 6-His
From the text: (§1) To determine how much of the Gin20 sequence is required for recombination when the central sequence is maintained at a permitted length, N-TALER reporters were generated with a 20 bp recombinase central sequence between the TALE binding sites, where either the central 12 bp, or the central 10 bp, or the central 8 bp of the recombinase core sequence were held constant, and the remaining nucleotides were different from the Gin sequence. The N-TALER reporter with 12 bp was designated R45, the N-TALER reporter with 10 bp was designated R46, and the N-TALER reporter with 8 bp was designated R47. A N-TALER reporter with a 10 bp site 1 and a 12 bp site 2 was designated R46B, and a N-TALER reporter with a T and an A flanking the central AT di-nucleotide was designated R48 (see Table 33). The various reporters, including the pSC101 Gin20TALE13+0 were co-transformed with either sN-TALER-IV-1 or pN-TALER-IV-1 and recombination, as determined by colony color, was scored (Table 33). For purposes of comparison, the GinE site that was used in the generation of the GinL7C7-EE2 recombinase domain (Gersbach et al., 2010) was also included.
(§2) To confirm that white colonies resulted from recombination, the colonies were analyzed by colony PCR and sequencing of the PCR product. For the reporter that retained 12 bp from the Gin site, 8 of 8 colonies analyzed had the predicted recombination product for both the sN-TALER-IV-1 chimera and the pN-TALER-IV-1chimera (16 colonies total analyzed, 8 each). Likewise, for the reporter that retained 8 bp from the Gin site co-transformed with the pN-TALER-IV-1 chimera, 14 of 14 colonies analyzed had the predicted recombination product.

[2] = biological target: T2, sN-TALER IV-1 (GinH106Y-TALE13); details: tags: 6-His; chain copies: 2 per site, tetramer in synapsis (stated)
From the text: as §1, §2

[3] = biological target: T3, sN-TALER IV-2 (GinH106Y-TALE13); details: tags: 6-His
Description: (§3) To test for recombination, E. coli DH5alpha cells were co-transformed with different combinations of TALER expression construct and TALER reporter construct pairs (Tables 6 and 7). The N-TALER expression and reporter constructs were in an approximate 1:1 mass ratio during the transformation. The co-transformed bacteria were plated on media with chloramphenicol, kanamycin, and X-gal then incubated at 37° C. for 18 to 36 hours. Control samples consisted of transformations using the reporter construct alone. Control transformants were similarly plated. The bacterial transformation protocol was either heat shock or electroporation per standard molecular biology techniques.

[4] = biological target: T2, sN-TALER IV-1 (GinH106Y-TALE13); details: tags: 6-His; chain copies: 2 per site, tetramer in synapsis (stated)
Description: as §3

sN-TALER IV-3 = biological target: T4, sN-TALER IV-3; details: tags: 6-His
Description: as §3

[5] = biological target: T1, pN-TALER IV-1-EE2 (GinL7C7-EE2-TALE13); details: tags: 6-His
Description: as §3
Two additional N-TALERs, based on N-TALER IV-1, were constructed wherein the GinH106Y recombinase catalytic domain was replaced with either the GinL7C7-EE2 catalytic domain or the GinL7C7-EE3 permissive recombinase catalytic domain. These N-TALERs were labeled pN-TALER IV-1-EE2 (SEQ ID NO:41) and pN-TALER IV-1-EE3 (SEQ ID NO:45), respectively. pN-TALER IV-1-EE2 was tested in combination with seventeen N-TALER reporter constructs and pN-TALER IV-1-EE3 was tested with three reporter constructs (Table 10).

Binder | activity [1] [score] | activity [2] [score] | activity [3] [score] | activity [4] [score] | activity (sN-TALER IV-3) [score] | activity [5] [score]
B1 | 1.5 | 4.5 | – | – | – | –
B2 | – | – | 1 | 2 | 1 | 2
B3 | 1 | 1.5 | – | – | – | –
B4 | 1.5 | 4.5 | – | – | – | –

— US20140193915, “COMPOSITIONS AND METHODS FOR CUSTOM SITE-SPECIFIC DNA RECOMBINASES” (Monsanto Technology, LLC, published 2014)
